Article PMC4631650 (Current biology : CB, 2015)
Numbering of substitutions follows the chain as printed. Numbers in names are those of the source.

B1: RECQ1-WT (full-length His-tagged human RECQ1) (enzyme, UniProt P46063 1-649, looked up)
chain: MASVSALTEELDSITSELHAVEIQIQELTERQQELIQKKKVLTKKIKQCLEDSDAGASNEYDSSPAAWNKEDFPWSGKVKDILQNVFKLEKFRPLQLETINVTMAGKEVFLVMPTGGGKSLCYQLPALCSDGFTLVICPLISLMEDQLMVLKQLGISATMLNASSSKEHVKWVHAEMVNKNSELKLIYVTPEKIAKSKMFMSRLEKAYEARRFTRIAVDEVHCCSQWGHDFRPDYKALGILKRQFPNASLIGLTATATNHVLTDAQKILCIEKCFTFTASFNRPNLYYEVRQKPSNTEDFIEDIVKLINGRYKGQSGIIYCFSQKDSEQVTVSLQNLGIHAGAYHANLEPEDKTTVHRKWSANEIQVVVATVAFGMGIDKPDVRFVIHHSMSKSMENYYQESGRAGRDDMKADCILYYGFGDIFRISSMVVMENVGQQKLYEMVSYCQNISKCRRVLMAQHFDEVWNSEACNKMCDNCCKDSAFERKNITEYCRDLIKILKQAEELNEKLTPLKLIDSWMGKGAAKLRVAGVVAPTLPREDLEKIIAHFLIQQYLKEDYSFTAYATISYLKIGPKANLLNNEAHAITMQVTKSTQNSFRAESSQTCHSEQGDKKMEEKNSGNFQKKAANMLQQSGSKNTGAKKRKIDDA
B2: RECQ1-F231A (full-length His-tagged human RECQ1 aromatic loop mutant) (enzyme, UniProt P46063 1-649, looked up)
chain: B1 chain with F231A
B3: RECQ1-W227A (full-length His-tagged human RECQ1 aromatic loop mutant) (enzyme, UniProt P46063 1-649, looked up)
chain: B1 chain with W227A

Biological target: the molecule itself
Test: SEC

Binding result, binds:
B1
B2
B3
